Laboratory results: PMC9977310, “ABT1 modifies SMARD1 pathology via interactions with IGHMBP2 and stimulation of ATPase and helicase activity” (JCI Insight, 2023)

Legend:
[1] = system: IGHMBP2;ABT1 (Homo sapiens;Mus musculus); test: MST; details: MST: 100 nM NT-647-labeled IGHMBP2 (+/- 100 nM ABT1), RNA titrated from 1 uM (single) or 500 nM each (two RNAs), buffer, salt, pH and temperature not stated. …
[2] = biological target: T1, immunoglobulin mu DNA binding protein 2 (IGHMBP2), human, full length, thioredoxin-6xHis fusion from pET32b (human, UniProt P38935 1-993, RED-Tris-NTA (NT-647) fluorescent label in the MST); test: cell-based or functional assay
T1 sequence (looked up): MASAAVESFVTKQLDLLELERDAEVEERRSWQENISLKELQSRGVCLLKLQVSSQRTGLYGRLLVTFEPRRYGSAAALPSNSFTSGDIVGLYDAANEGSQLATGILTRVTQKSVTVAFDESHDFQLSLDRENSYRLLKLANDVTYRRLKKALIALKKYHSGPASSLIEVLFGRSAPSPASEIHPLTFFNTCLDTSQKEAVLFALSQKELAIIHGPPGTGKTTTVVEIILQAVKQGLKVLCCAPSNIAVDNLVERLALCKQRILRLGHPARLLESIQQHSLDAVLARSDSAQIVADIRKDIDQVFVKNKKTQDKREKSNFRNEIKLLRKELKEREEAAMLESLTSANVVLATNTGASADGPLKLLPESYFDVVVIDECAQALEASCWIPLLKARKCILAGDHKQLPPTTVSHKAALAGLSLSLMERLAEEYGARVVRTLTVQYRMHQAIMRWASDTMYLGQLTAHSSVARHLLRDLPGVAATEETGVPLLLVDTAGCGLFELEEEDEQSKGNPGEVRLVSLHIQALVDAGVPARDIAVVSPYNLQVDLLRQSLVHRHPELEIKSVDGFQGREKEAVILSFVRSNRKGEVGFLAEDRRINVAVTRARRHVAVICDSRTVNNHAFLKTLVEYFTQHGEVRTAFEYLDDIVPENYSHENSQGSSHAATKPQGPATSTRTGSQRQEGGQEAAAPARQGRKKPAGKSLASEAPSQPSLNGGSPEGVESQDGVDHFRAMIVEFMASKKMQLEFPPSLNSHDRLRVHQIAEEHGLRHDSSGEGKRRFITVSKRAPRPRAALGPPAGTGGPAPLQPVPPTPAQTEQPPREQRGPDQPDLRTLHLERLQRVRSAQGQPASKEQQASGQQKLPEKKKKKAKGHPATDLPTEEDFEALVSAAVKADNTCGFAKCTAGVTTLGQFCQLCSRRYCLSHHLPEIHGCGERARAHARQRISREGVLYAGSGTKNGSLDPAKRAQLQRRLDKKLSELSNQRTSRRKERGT

[3] = biological target: T1, immunoglobulin mu DNA binding protein 2 …; test: not stated; stoichiometry of ABT1 to IGHMBP2, Supplemental Figure 1; told in the paragraph on DLS, method not given; details: both partners purified
[4] = biological target: T1, immunoglobulin mu DNA binding protein 2 …; test: MST; IGHMBP2 RED-Tris-NTA labelled, constant 100 nM; partner titrated (1 μM to 1.53 × 10^5 μM as printed); fit to a quadratic equation, MO.Affinity Analysis; details: both partners purified

5' ETS RNA (47S pre-rRNA)
Kd [1]: > 0.697 µM

U3 snoRNA
Kd [1]: 0.035 µM

5' ETS RNA + U3 snoRNA (annealed)
Kd ([1]; 100 nM IGHMBP2 + 100 nM ABT1, RNAs from 500 nM each): 0.028 µM

B1: activator of basal transcription 1 (ABT1), mouse, full length, GST fusion from pGEX-6P1 (natural protein, UniProt Q9QYL7 1-269, looked up)
chain: MVKAGELVEQQKAAMEEEANAEAAEDQEEPEDTACSSSSKKKKKVVPGIVYLGHVPPRFRPLHVRNLLSAYGEVGRVFFQAEDHFVKRKKKAAAAAGGKKGAKYSKDYTEGWVEFRDKRVAKRVAASLHNTPMGARKRSPFRYDLWNLKYLHRFTWSHLSEHLAFERQVRRQRLRAEVAQAKRETDFYLRNVEQGQHFLAADGDATRPNSSWTFTQRPTEQEFRARKAARPGGRERARLANVEDQARSNRGLLAKIFGAPLPAESKEKP
notes: ABT1, mouse, full-length cDNA synthesized (GenScript), cloned into pGEX6P1; 31 kDa ABT1 + ~26 kDa GST, predicted ~57 kDa; Mouse ABT1 was tested against human IGHMBP2; No cleavage of GST is described; also called GST-ABT1; pGEX-ABT1; source: E. coli (BL21 and Rosetta strains used), purified on GST beads, eluted with reduced glutathione; bacterial cell lysate in the immunoprecipitation
ATPase activity of IGHMBP2 (100 nM) with increasing ABT1 up to 120 nM (malachite green, free phosphate), fold increase over IGHMBP2 alone [2]: 1.96 fold
helicase activity of IGHMBP2 (100 nM) with increasing ABT1 up to 120 nM (Cy3-labelled DNA substrate), fold increase over IGHMBP2 alone [2]: 1.41 fold
nucleic acid unwinding rate of TP31-18mer duplex, 100 nM IGHMBP2 + 100 nM ABT1, 1-7 min (IGHMBP2 alone 1.141/min; printed as a 1.42-fold increase) [2]: 5.96 min⁻¹
rate of DNA substrate unwinding/nM protein, 100 nM IGHMBP2 with ABT1 20-100 nM, 7 min (IGHMBP2 alone 0.005/min; printed as 1.84-fold increased activity) [2]: 0.01 min⁻¹
stoichiometry N [3]: ~1
Kd [4]: ~0.052 µM
